In patent US10472401B2, “Peptides and combination of peptides for use in immunotherapy against ovarian cancer and other cancers” (immatics biotechnologies GmbH, priority 2015, dated 2019):

target: HLA-A*02:01 (Homo sapiens, UniProt P04439, D140Y/D185E/D98H/E176V/E277Q/G131W/G231S/I119V/I121R/I166T/I218V/L300P/L318F/N151K/N90K/P208A/P217A/Q86G/Q94H/R138H/R169H/T345S); experiment: MHC binding assay (UV-ligand exchange, ELISA of stabilized MHC complexes); conditions: MHC class I binding score; binding to HLA-A*02:01 ranged by peptide exchange yield (UV-ligand exchange, ELISA)
From the text: Candidate peptides for T cell based therapies according to the present invention were further tested for their MHC binding capacity (affinity). The individual peptide-MHC complexes were produced by UV-ligand exchange, where a UV-sensitive peptide is cleaved upon UV-irradiation, and exchanged with the peptide of interest as analyzed. Only peptide candidates that can effectively bind and stabilize the peptide-receptive MHC molecules prevent dissociation of the MHC complexes. To determine the yield of the exchange reaction, an ELISA was performed based on the detection of the light chain (β2m) of stabilized MHC complexes. The assay was performed as generally described in Rodenko et al. (Rodenko et al., 2006).
96 well MAXISorp plates (NUNC) were coated over night with 2 ug/ml streptavidin in PBS at room temperature, washed 4× and blocked for 1h at 37° C. in 2% BSA containing blocking buffer. […] Peptide-MHC monomers of the UV-exchange reaction were diluted 100 fold in blocking buffer. Samples were incubated for 1h at 37° C., washed four times, incubated with 2 ug/ml HRP conjugated anti-82m for 1h at 37° C., washed again and detected with TMB solution that is stopped with […]. Absorption was measured at 450 nm. Candidate peptides that show a high exchange yield (preferably higher than 50%, most preferred higher than 75%) are generally preferred for a generation and production of antibodies or fragments thereof, and/or T cell receptors or fragments thereof, as they show sufficient avidity to the MHC molecules and prevent dissociation of the MHC complexes.

Row | Substance | Peptide exchange
1 | 97 (SLINGSFLV; listed as Homo sapiens) [compound 97] | ″+++″ (≥50% = +++)
2 | 84 (VTFGEKLLGV; listed as Homo sapiens) [compound 84] | ″++″ (≥20% = ++)
3 | 77 (ILVEADGAWVV; listed as Homo sapiens) [compound 77] | ″++++″ (≥75% = ++++)
4 | 269 (RVLEVGALQAV; listed as Homo sapiens) [compound 269] | ″++″ (≥20% = ++)
5 | 168 (KILDADIQL; listed as Homo sapiens) [compound 168] | ″++++″ (≥75% = ++++)
6 | 200 (LLFGSVQEV; listed as Homo sapiens) [compound 200] | ″+++″ (≥50% = +++)
7 | 265 (LLFGGTKTV; listed as Homo sapiens) [compound 265] | ″++″ (≥20% = ++)
8 | 158 (KLFDVDEDGYI; listed as Homo sapiens) [compound 158] | ″+++″ (≥50% = +++)
9 | 145 (FLATSGTLAGI; listed as Homo sapiens) [compound 145] | ″++″ (≥20% = ++)
10 | 10 (FLATFPLAAV; listed as Homo sapiens) [compound 10] | ″++++″ (≥75% = ++++)
11 | 66 (FLDENIGGVAV; listed as Homo sapiens) [compound 66] | ″+++″ (≥50% = +++)
12 | 239 (AAFAGKLLSV; listed as Homo sapiens) [compound 239] | ″+++″ (≥50% = +++)
13 | 252 (LLIGTDVSL; listed as Homo sapiens) [compound 252] | ″+++″ (≥50% = +++)
14 | 179 (KVLNELYTV; listed as Homo sapiens) [compound 179] | ″+++″ (≥50% = +++)
15 | 94 (YLIDIKTIAI; listed as Homo sapiens) [compound 94] | ″++″ (≥20% = ++)
16 | 178 (ALTEIAFVV; listed as Homo sapiens) [compound 178] | ″++++″ (≥75% = ++++)
17 | 142 (FLFATPVFI; listed as Homo sapiens) [compound 142] | ″+++″ (≥50% = +++)
18 | 192 (KMLDGASFTL; listed as Homo sapiens) [compound 192] | ″+++″ (≥50% = +++)
19 | 336 (ILLTAIVQV; listed as Homo sapiens) [compound 336] | ″+++″ (≥50% = +++)
20 | 55 (SLLDLETLSL; listed as Homo sapiens) [compound 55] | ″++++″ (≥75% = ++++)
21 | 262 (LLWGDLIWL; listed as Homo sapiens) [compound 262] | ″+++″ (≥50% = +++)

Row | Substance | Peptide exchange
22 | 19 (FMVDNEAIYDI; listed as Homo sapiens) [compound 19] | ″++++″ (≥75% = ++++)
23 | 313 (VLFDDELLMV; listed as Homo sapiens) [compound 313] | ″+++″ (≥50% = +++)
24 | 251 (ALYTGFSILV; listed as Homo sapiens) [compound 251] | ″++″ (≥20% = ++)
25 | 35 (KINDTIYEV; listed as Homo sapiens) [compound 35] | ″+++″ (≥50% = +++)
26 | 191 (LLQEGQALEYV; listed as Homo sapiens) [compound 191] | ″++″ (≥20% = ++)
27 | 328 (ALNDQVFEI; listed as Homo sapiens) [compound 328] | ″+++″ (≥50% = +++)
28 | 331 (KVDTVWVNV; listed as Homo sapiens) [compound 331] | ″+++″ (≥50% = +++)
29 | 34 (ILVEADSLWVV; listed as Homo sapiens) [compound 34] | ″+++″ (≥50% = +++)
30 | 228 (AMQEYIAVV; listed as Homo sapiens) [compound 228] | ″++″ (≥20% = ++)
31 | 151 (KILQQLVTL; listed as Homo sapiens) [compound 151] | ″+++″ (≥50% = +++)
32 | 62 (VLLDVSAGQLLM; listed as Homo sapiens) [compound 62] | ″++++″ (≥75% = ++++)
33 | 110 (FLSQVDFEL; listed as Homo sapiens) [compound 110] | ″+++″ (≥50% = +++)
34 | 50 (SLSELEALM; listed as Homo sapiens) [compound 50] | ″+++″ (≥50% = +++)
35 | 92 (YLIPFTGIVGL; listed as Homo sapiens) [compound 92] | ″++″ (≥20% = ++)
36 | 201 (RLVDYLEGI; listed as Homo sapiens) [compound 201] | ″+++″ (≥50% = +++)
37 | 316 (ILLERLWYV; listed as Homo sapiens) [compound 316] | ″+++″ (≥50% = +++)
38 | 83 (ILAPTVMMI; listed as Homo sapiens) [compound 83] | ″+++″ (≥50% = +++)
39 | 288 (NLINEINGV; listed as Homo sapiens) [compound 288] | ″+++″ (≥50% = +++)
40 | 300 (ALLGQTFSL; listed as Homo sapiens) [compound 300] | ″+++″ (≥50% = +++)
41 | 103 (TLAEEVVAL; listed as Homo sapiens) [compound 103] | ″+++″ (≥50% = +++)

Second part, the substance after the results:

Row | Peptide exchange | Substance
42 | ″+++″ (≥50% = +++) | 561 (YLQLTQSEL; listed as Homo sapiens) [compound 561]
43 | ″+++″ (≥50% = +++) | 467 (FLAKDFNFL; listed as Homo sapiens) [compound 467]
44 | ″++″ (≥20% = ++) | 363 (KVLDVSDLESV; listed as Homo sapiens) [compound 363]
45 | ″+″ (≥10% = +) | 520 (LAVHPSGVAL; listed as Homo sapiens) [compound 520]
46 | ″++″ (≥20% = ++) | 440 (ALADGVTMQV; listed as Homo sapiens) [compound 440]
47 | ″+++″ (≥50% = +++) | 618 (VLFDSESIGIYV; listed as Homo sapiens) [compound 618]
48 | ″++″ (≥20% = ++) | 376 (AMFESSQNVLL; listed as Homo sapiens) [compound 376]
49 | ″+++″ (≥50% = +++) | 401 (ILLDDTGLAYI; listed as Homo sapiens) [compound 401]
50 | ″++″ (≥20% = ++) | 408 (VLDDSIYLV; listed as Homo sapiens) [compound 408]
51 | ″+++″ (≥50% = +++) | 609 (ALWKQLLEL; listed as Homo sapiens) [compound 609]
52 | ″++″ (≥20% = ++) | 389 (LLADVTHLL; listed as Homo sapiens) [compound 389]
53 | ″+++″ (≥50% = +++) | 584 (ALAEVAAMENV; listed as Homo sapiens) [compound 584]
54 | ″+++″ (≥50% = +++) | 569 (KLVDRTWTL; listed as Homo sapiens) [compound 569]
55 | ″+++″ (≥50% = +++) | 604 (SILDRDDIFV; listed as Homo sapiens) [compound 604]
56 | ″+++″ (≥50% = +++) | 622 (RLLGEEVVRVLQA; listed as Homo sapiens) [compound 622]
57 | ″+++″ (≥50% = +++) | 362 (TLYGLSVLL; listed as Homo sapiens) [compound 362]
58 | ″++″ (≥20% = ++) | 580 (LLMENAERV; listed as Homo sapiens) [compound 580]
59 | ″++″ (≥20% = ++) | 381 (FIDEAYVEV; listed as Homo sapiens) [compound 381]
60 | ″+++″ (≥50% = +++) | 365 (YVIDQGETDVYV; listed as Homo sapiens) [compound 365]
61 | ″++″ (≥20% = ++) | 510 (KLYSVVSQL; listed as Homo sapiens) [compound 510]
62 | ″+++″ (≥50% = +++) | 500 (SLMEDQVLQL; listed as Homo sapiens) [compound 500]
63 | ″+++″ (≥50% = +++) | 386 (ILFRYPLTI; listed as Homo sapiens) [compound 386]
64 | ″+++″ (≥50% = +++) | 471 (YLYNNMIAKI; listed as Homo sapiens) [compound 471]
65 | ″+++″ (≥50% = +++) | 546 (VMIAGKVAVV; listed as Homo sapiens) [compound 546]
66 | ″+++″ (≥50% = +++) | 497 (GLLEKLTAI; listed as Homo sapiens) [compound 497]
67 | ″+++″ (≥50% = +++) | 356 (KLLGKLPEL; listed as Homo sapiens) [compound 356]
68 | ″+++″ (≥50% = +++) | 541 (SMLEPVPEL; listed as Homo sapiens) [compound 541]
69 | ″++″ (≥20% = ++) | 494 (ALQPEPIKV; listed as Homo sapiens) [compound 494]
70 | ″++″ (≥20% = ++) | 526 (RLAEVGQYEQV; listed as Homo sapiens) [compound 526]
71 | ″+++″ (≥50% = +++) | 592 (RLLSAAENFL; listed as Homo sapiens) [compound 592]
